Numbered stars: 1 amine (or outer) side, 2 acyl side, 3 side chain; on linkers, the order of the positions; unused ones are H or OH. Square brackets hold non-standard residues; d marks the D form. Side chains are listed from the residue outwards. Ends that are not written are not given here. * marks the point of attachment. C18 diacid = O=C(O)CCCCCCCCCCCCCCCCC(=O)*; γGlu = O=C(O)[C@H](CCC(=O)[*:2])N[*:1]; AEEA = NCCOCCOCC(=O)O; Aib = CC(C)(N)C(=O)O
T1: human GIP receptor (human, UniProt P48546 22-466)
T1 construct: whole, on cells; also called hGIPR; hGIP-R
T1 sequence (looked up): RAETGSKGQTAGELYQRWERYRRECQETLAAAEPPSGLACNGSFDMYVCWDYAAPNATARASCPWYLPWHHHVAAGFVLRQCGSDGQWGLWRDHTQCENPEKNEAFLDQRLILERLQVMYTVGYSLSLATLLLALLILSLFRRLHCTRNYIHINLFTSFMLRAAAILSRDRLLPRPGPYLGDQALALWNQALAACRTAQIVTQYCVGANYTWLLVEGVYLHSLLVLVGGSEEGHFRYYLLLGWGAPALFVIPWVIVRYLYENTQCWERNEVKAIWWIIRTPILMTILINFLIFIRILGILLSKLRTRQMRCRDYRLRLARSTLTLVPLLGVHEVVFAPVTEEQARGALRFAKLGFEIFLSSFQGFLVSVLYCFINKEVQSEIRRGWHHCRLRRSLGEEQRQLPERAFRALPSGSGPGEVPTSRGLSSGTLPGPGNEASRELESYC

B1: Example 298 (peptide)
peptide: Y[Aib]EGTFTSDYSILLDKK([AEEA-AEEA-γGlu-C18 diacid])AQ[Aib]AFVEYLIEGGPSSG-NH2
modifications: N-terminus assumed
SMILES: CC[C@H](C)[C@H](NC(=O)[C@H](CC(C)C)NC(=O)[C@H](Cc1ccc(O)cc1)NC(=O)[C@H](CCC(=O)O)NC(=O)[C@@H](NC(=O)[C@H](Cc1ccccc1)NC(=O)[C@H](C)NC(=O)C(C)(C)NC(=O)[C@H](CCC(N)=O)NC(=O)[C@H](C)NC(=O)[C@H](CCCCNC(=O)COCCOCCNC(=O)COCCOCCNC(=O)CC[C@H](NC(=O)CCCCCCCCCCCCCCCCC(=O)O)C(=O)O)NC(=O)[C@H](CCCCN)NC(=O)[C@H](CC(=O)O)NC(=O)[C@H](CC(C)C)NC(=O)[C@H](CC(C)C)NC(=O)[C@@H](NC(=O)[C@H](CO)NC(=O)[C@H](Cc1ccc(O)cc1)NC(=O)[C@H](CC(=O)O)NC(=O)[C@H](CO)NC(=O)[C@@H](NC(=O)[C@H](Cc1ccccc1)NC(=O)[C@@H](NC(=O)CNC(=O)[C@H](CCC(=O)O)NC(=O)C(C)(C)NC(=O)[C@@H](N)Cc1ccc(O)cc1)[C@@H](C)O)[C@@H](C)O)[C@@H](C)CC)C(C)C)C(=O)N[C@@H](CCC(=O)O)C(=O)NCC(=O)NCC(=O)N1CCC[C@H]1C(=O)N[C@@H](CO)C(=O)N[C@@H](CO)C(=O)NCC(N)=O
B2: Example 320 (peptide)
peptide: Y[Aib]EGTFTSDYSILLDKK([AEEA-AEEA-γGlu-C18 diacid])AQ[Aib]DFIEYLIEGGPSSG-NH2
modifications: N-terminus assumed
SMILES: CC[C@H](C)[C@H](NC(=O)[C@H](CC(C)C)NC(=O)[C@H](Cc1ccc(O)cc1)NC(=O)[C@H](CCC(=O)O)NC(=O)[C@@H](NC(=O)[C@H](Cc1ccccc1)NC(=O)[C@H](CC(=O)O)NC(=O)C(C)(C)NC(=O)[C@H](CCC(N)=O)NC(=O)[C@H](C)NC(=O)[C@H](CCCCNC(=O)COCCOCCNC(=O)COCCOCCNC(=O)CC[C@H](NC(=O)CCCCCCCCCCCCCCCCC(=O)O)C(=O)O)NC(=O)[C@H](CCCCN)NC(=O)[C@H](CC(=O)O)NC(=O)[C@H](CC(C)C)NC(=O)[C@H](CC(C)C)NC(=O)[C@@H](NC(=O)[C@H](CO)NC(=O)[C@H](Cc1ccc(O)cc1)NC(=O)[C@H](CC(=O)O)NC(=O)[C@H](CO)NC(=O)[C@@H](NC(=O)[C@H](Cc1ccccc1)NC(=O)[C@@H](NC(=O)CNC(=O)[C@H](CCC(=O)O)NC(=O)C(C)(C)NC(=O)[C@@H](N)Cc1ccc(O)cc1)[C@@H](C)O)[C@@H](C)O)[C@@H](C)CC)[C@@H](C)CC)C(=O)N[C@@H](CCC(=O)O)C(=O)NCC(=O)NCC(=O)N1CCC[C@H]1C(=O)N[C@@H](CO)C(=O)N[C@@H](CO)C(=O)NCC(N)=O
B3: Example 299 (peptide)
peptide: Y[Aib]EGTFTSDYSILLDKK([AEEA-AEEA-γGlu-C18 diacid])AQ[Aib]AFLEYLIEGGPSSG-NH2
modifications: N-terminus assumed
SMILES: CC[C@H](C)[C@H](NC(=O)[C@H](CC(C)C)NC(=O)[C@H](Cc1ccc(O)cc1)NC(=O)[C@H](CCC(=O)O)NC(=O)[C@H](CC(C)C)NC(=O)[C@H](Cc1ccccc1)NC(=O)[C@H](C)NC(=O)C(C)(C)NC(=O)[C@H](CCC(N)=O)NC(=O)[C@H](C)NC(=O)[C@H](CCCCNC(=O)COCCOCCNC(=O)COCCOCCNC(=O)CC[C@H](NC(=O)CCCCCCCCCCCCCCCCC(=O)O)C(=O)O)NC(=O)[C@H](CCCCN)NC(=O)[C@H](CC(=O)O)NC(=O)[C@H](CC(C)C)NC(=O)[C@H](CC(C)C)NC(=O)[C@@H](NC(=O)[C@H](CO)NC(=O)[C@H](Cc1ccc(O)cc1)NC(=O)[C@H](CC(=O)O)NC(=O)[C@H](CO)NC(=O)[C@@H](NC(=O)[C@H](Cc1ccccc1)NC(=O)[C@@H](NC(=O)CNC(=O)[C@H](CCC(=O)O)NC(=O)C(C)(C)NC(=O)[C@@H](N)Cc1ccc(O)cc1)[C@@H](C)O)[C@@H](C)O)[C@@H](C)CC)C(=O)N[C@@H](CCC(=O)O)C(=O)NCC(=O)NCC(=O)N1CCC[C@H]1C(=O)N[C@@H](CO)C(=O)N[C@@H](CO)C(=O)NCC(N)=O

Tests used:
[1] = biological target: T2, human GLP-1 receptor (human, UniProt P43220 24-463); test: [125I]-GLP-1 competition SPA, hGLP-1R membranes
T2 construct: whole, on cells; also called hGLP-1R; hGLP1R
Procedure: The binding buffer contains 25 mM HEPES, pH 7.4, 2.5 mM CaCl₂, 1 mM MgCl₂, 0.1% (w/v) bacitracin, 0.003% (w/v) TWEEN®-20, and Roche Complete™ Protease Inhibitors without EDTA.
(§1) Data are analyzed using four-parameter (curve maximum, curve minimum, IC₅₀, Hill slope) nonlinear regression routines (Genedata Screener, version 12.0.4, Genedata AG, Basal, Switzerland). […] Values for Kᵢ are reported as the geometric mean, with error expressed as the standard error of the mean (SEM) and n is equal to the number of independent replicates (determined in assays performed on different days). Geometric Means are calculated as follows: […]

[2] = biological target: T1, human GIP receptor; test: [125I]-GIP competition SPA, hGIPR membranes
Procedure: The binding buffer contains 25 mM HEPES, pH 7.4, 2.5 mM CaCl₂, 1 mM MgCl₂, 0.1% (w/v) bacitracin, 0.003% (w/v) TWEEN®-20, and Roche Complete™ Protease Inhibitors without EDTA. […] Plates are sealed and mixed on a plate shaker (setting 6) for 1 minute and read with a PerkinElmer Trilux MicroBeta® scintillation counter after 2.5 to 12 hours of incubation/settling time at room temperature.
as §1

Binder	Ki [1] [nM]	Ki [2] [nM]
B1	3.03	0.0578
B2	5.17	0.136
B3	54.3	0.734
